Data set [1] deals with SUR1-Kir6.2 fusion construct with a 39-residue linker (Mesocricetus auratus | Mus musculus). In words: SEC; screening of fusion constructs: cleared lysate of transfected FreeStyle 293-F cells solubilised in 20 mmol/L HEPES pH 8.0, 120 mmol/L KCl, 1% digitonin, loaded onto a Superose 6 increase column.
Data set [2] deals with the molecule itself. Kind of data set: cryo-EM structure; Mg-ADP state: purified fusion channel in 20 mmol/L HEPES pH 8.0, 120 mmol/L KCl, 0.1% digitonin, with 2.5 mmol/L MgCl2, 1 mmol/L ADP, 400 μmol/L 08:0 PI(4,5)P2, 500 μmol/L NN414 and 1 mmol/L Na3VO4; C4 symmetry.

Regarding “SUR1-Kir6.2 fusion construct with a 39-residue linker (complex)”, the stoichiometry N – broadly, a count of units in the complex or per binding partner – in data set [1] was 4.

B1: Kir6.2 (inward-rectifying potassium channel 6.2) subunit, as part of the SUR1-Kir6.2 fusion construct (natural protein, Mus musculus)
chain: MLSRKGIIPEEYVLTRLAEDPAEPRYRTRERRARFVSKKGNCNVAHKNIREQGRFLQDVFTTLVDLKWPHTLLIFTMSFLCSWLLFAMVWWLIAFAHGDLAPGEGTNVPCVTSIHSFSSAFLFSIEVQVTIGFGGRMVTEECPLAILILIVQNIVGLMINAIMLGCIFMKTAQAHRRAETLIFSKHAVITLRHGRLCFMLRVGDLRKSMIISATIHMQVVRKTTSPEGEVVPLHQVDIPMENGVGGNGIFLVAPLIIYHVIDSNSPLYDLAPSDLHHHQDLEIIVILEGVVETTGITTQARTSYLADEILWGQRFVPIVAEEDGRYSVDYSKFGNTIKVPTPLCTARQLDEDRSLLDALTLASSRGPLRKRSVAVAKAKPKFSISPDSLS
notes: Kir6.2 from Mus musculus (Woo et al., 2013); In the assay it stood as the C-terminal part of the fusion chain of m1; its N-terminus is joined through the 39-residue linker to the C-terminus of SUR1, so it has no free native N-terminus; The linker and the Kir6.2 N-terminus are disordered in the maps; also called mmKir6.2; source: FreeStyle 293-F cells, BacMam system, purified as part of the fusion …
Regarding B1, the “stoichiometry N” value in data set [2] came to 4.

The values above are taken from article PMC5966361, “Ligand binding and conformational changes of SUR1 subunit in pancreatic ATP-sensitive potassium channels” (Protein & Cell, 2018).
